# Laboratory results reported in patent US5942405A, “Therapeutic and screening methods using C3a receptor and C3a” (priority 1997, dated 1999).
# T1: C3a Receptor (Homo sapiens, UniProt Q16581)
# T1 sequence (Q16581 1-482 F151C): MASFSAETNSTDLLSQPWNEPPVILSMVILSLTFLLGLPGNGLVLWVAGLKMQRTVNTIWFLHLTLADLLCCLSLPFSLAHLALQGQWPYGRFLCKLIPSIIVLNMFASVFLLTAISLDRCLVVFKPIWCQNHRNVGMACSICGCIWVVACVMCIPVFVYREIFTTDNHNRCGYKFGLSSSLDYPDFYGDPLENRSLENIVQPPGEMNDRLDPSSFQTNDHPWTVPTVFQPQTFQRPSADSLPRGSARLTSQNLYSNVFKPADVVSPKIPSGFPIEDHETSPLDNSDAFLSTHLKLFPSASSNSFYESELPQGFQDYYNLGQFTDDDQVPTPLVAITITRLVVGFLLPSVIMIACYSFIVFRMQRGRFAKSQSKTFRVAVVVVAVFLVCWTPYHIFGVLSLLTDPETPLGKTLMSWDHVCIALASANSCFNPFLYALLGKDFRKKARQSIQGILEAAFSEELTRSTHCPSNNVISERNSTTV
# Biological target: T1, C3a Receptor
# Assay: Electrophysiological response (Ca2+ mediated chloride currents, two electrode voltage clamp) of Xenopus oocytes injected with C3a Receptor cRNA
# Format: cell-based
# Parameters: cDNA encoding a complete orphan GPCR of 482 amino acids; expressed in transfected cells; host or cells: Xenopus laevis oocytes microinjected with cRNA, with or without U937 total RNA
# Conditions: for electrophysiological response of oocytes expressing C3a Receptor: oocytes co-injected with C3a Receptor cRNA (10 ng) and U937 RNA (25 ng), ligands 10 nM; for electrophysiological response of oocytes injected with C3a Receptor cRNA or U937 RNA alone: 10 nM ligand
# Procedure: (A) Electrophysiological response of Xenopus oocytes injected with cRNA for C3a Receptor (10 ng), total U937 RNA (25 ng), or a mixture of C3a Receptor (10 ng) and U937 RNA (25 ng) to 10 nM rC5a, 10 nM C3a analogue peptide, 10 nM platelet activating factor (PAF), 10 nM fMetLeuPhe. Inset, represents typical response of oocytes co-injected with C3a Receptor cRNA+U937 RNA to 10 nM C3a. (B) Electrophysiological response of oocytes injected with C5a-R cRNA (10 ng), U937 RNA (25 ng) or a mixture of C5a-R and U937 RNA, to 10 nM rC5a or 10 nM C3a analogue peptide. […] Calcium mobilization by Fura 2 loaded cells expressing C5a receptor (FIGS. 4A & 4C) or C3a Receptor (FIGS. 4B & 4D) in response to rC5a (10 nM, FIG. 4A or 100 nM, FIG. 4B) or C3a analogue peptide (1 uM, FIGS. 4C & 4D).
# Capped cRNA transcripts were generated from linearized C3a Receptor and C5a-R plasmid DNA as previously described (Kumar, C. S., et al (1989) J. Biol. Chem. 264, 17939-17946) and suspended in sterile water at a concentration of 0.2 μg/μl. Ovarian lobes were surgically removed from adult female Xenopus laevis frogs and defolliculated Stage V oocytes were harvested by manual dissection (Smith, L. D., et al (1991) Methods in Cell Biology, 36, 45-54. Edited by B. K. Kay and H. B. Peng, Academic Press Inc., New York.). Oocytes were microinjected with C3a Receptor or C5a-R cRNA transcripts (10 ng/oocyte) with or without U937 total RNA (25 ng/oocyte) in a 50 nl volume using a Drummond microinjection apparatus and maintained in modified Barth's saline (Power, C. A., et al (1995) J. Biol. Chem., 270,19495-19500 ) at 18° C. Electrophysiological recordings from an average of 10 oocytes were made 48 h later at room temperature using the two electrode voltage clamp (Warner Instruments) technique. Membrane potentials were routinely clamped at -60 mV. Results represent average response determined in three separate experiments.
# The chemotactic receptors for C5a and the fMLP-R have previously been functionally expressed in Xenopus laevis oocytes (Kroll, B., et al (1991) FEBS Lett. 291, 208-210; Murphy, P. M. & McDermott, D. (1991) J Biol. Chem. 266, 12560-12567; Murphy, P. M., Gallin, E. K., and Tiffany, H. L. (1990) J Immunol. 145, 2227-2234; Schultz, P., et al (1992) Cellular Signalling 4, 153-161) and, unlike all other GPCRs tested in this system, injection of cRNA for the cloned chemotactic receptors alone is insufficient to stimulate signal transduction in response to ligand binding (Kroll, B., et al (1991) FEBS Lett. 291, 208-210; Murphy, P. M. & McDermott, D. (1991) J Biol. Chem. 266, 12560-12567). Functional expression of both of these chemotactic receptors, as monitored by induction of Ca^2+ mediated chloride currents, requires the co-injection of a complimentary human factor which can be supplied by total RNA from myeloid or liver cells (Kroll, B., et al (1991) FEBS Lett. 291, 208-210; Murphy, P. M. & McDermott, D. (1991) J Biol. Chem. 266, 12560-12567). The co-factor is required for receptor-mediated signal transduction but not for expression of the C5a-R or fMLF-R on the surface of the oocytes (Murphy, P. M., et al (1990) J Immunol. 145, 2227-2234). […] Xenopus oocytes were used to functionally characterize C3a Receptor. […] Like the C5a-R and the fMLF-R, the response was dependent on the co-injection of a cofactor present in total HL-60 or U937 RNA. […] (FIG. 3B). Both the C5a-R as well as C3a Receptor elicited in oocytes a promiscuous response to the two anaphylatoxins.
Molecule,electrophysiological response of oocytes expressing C3a Receptor,electrophysiological response of oocytes expressing C3a Receptor (listed as native ligand),electrophysiological response of oocytes injected with C3a Receptor cRNA or U937 RNA alone,electrophysiological response of oocytes expressing C3a Receptor (listed as C3a carboxy-terminal analog synthetic peptide),electrophysiological response of oocytes expressing C3a Receptor (listed as C5a)
"C3a: C3a was purchased from Advanced Research Technologies, San Diego; anaphylatoxin; radioiodinated for binding",respond,elicited similar responses,,,
"WWGKKYRASKLGLAR [C3a analogue synthetic peptide, reference compound]",respond,,did not elicit any response,elicited an electrophysiological response,
"rC5a: Human rC5a was expressed in E. coli and purified to homogeneity (protein, UniProt P01031 678-751, looked up, C5a anaphylatoxin recombinant, E. coli, Human rC5a was expressed in E. coli and purified to homogeneity) C5a anaphylatoxin: TLQKKIEEIAAKYKHSVVKKCCYDGACVNNDETCEQRAARISLGPRCIKAFTECCVVASQLRANISHKDMQLGR",,,did not elicit any response,,respond
